10 molecules from US20140186359A1 (TORAY INDUSTRIES, published 2014) can be followed below.

Where only a bound is given, the exact number is not on record here.

Sequences and labels used below:
T1: human CAPRIN-1 expressed on the surface of human cancer cells (human, UniProt Q14444 2-709)
T1 sequence: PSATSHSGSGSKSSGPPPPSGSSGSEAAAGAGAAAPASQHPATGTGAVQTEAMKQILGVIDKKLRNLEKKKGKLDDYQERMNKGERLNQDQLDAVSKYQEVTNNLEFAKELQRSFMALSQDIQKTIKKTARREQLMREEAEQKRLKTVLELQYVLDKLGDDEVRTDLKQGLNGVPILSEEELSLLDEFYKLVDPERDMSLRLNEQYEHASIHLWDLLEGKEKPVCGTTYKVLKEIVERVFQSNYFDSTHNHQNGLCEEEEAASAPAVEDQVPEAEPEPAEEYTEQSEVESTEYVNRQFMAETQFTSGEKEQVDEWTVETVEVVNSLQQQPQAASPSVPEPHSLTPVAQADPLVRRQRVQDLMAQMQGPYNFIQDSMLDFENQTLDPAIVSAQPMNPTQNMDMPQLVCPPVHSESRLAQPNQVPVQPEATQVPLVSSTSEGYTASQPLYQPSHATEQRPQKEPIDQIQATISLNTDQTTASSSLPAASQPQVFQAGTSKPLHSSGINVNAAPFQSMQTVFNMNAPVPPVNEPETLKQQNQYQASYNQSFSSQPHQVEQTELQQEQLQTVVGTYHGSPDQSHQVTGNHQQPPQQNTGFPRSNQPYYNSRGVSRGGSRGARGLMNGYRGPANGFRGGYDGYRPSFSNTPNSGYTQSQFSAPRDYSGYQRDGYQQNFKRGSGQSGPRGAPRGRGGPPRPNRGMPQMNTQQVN

B1: human-mouse chimeric comparative monoclonal antibody 2 (antibody, human IgG1, kappa)
heavy: not shown
light: AVLRCSRGLLVIWISDIQLTQSPSSLAVTAGEKVTMSCKSSQSLLWSVNQKNYLSWYQQKQRQPPKLLIYGASIRESWVPDRFTGSGSGTDFTLTISNVHAEDLAVYYCQHNHGSFLPSRSEQVPSWRSNNRTVAAPSVFIFPPSDEQLKSGTASVVCLLNNFYPREAKVQWKVDNALQSGNSQESVTEQDSKDSTYSLSSTLTLSKADYEKHKVYACEVTHQGLSSPVTKSFNRGEC
B2: human-chicken chimeric monoclonal antibody #3 (antibody, V domains shown)
VH: AVTLDESGGGLQTPGGGLSLVCKGSGFTFSSFGMFWVRQAPGKGLEFVASISDNGRSTYYGSAVKGRATISRDDGQSTVRLQLNNLRAEDTGTYYCAKNAYVGRGCCFSYSIDAWGHGTEVIVS
VL: ALTQPASVSVNPGETVKITCSGGGSSSDAYGWYQQKSPGSAPVTLIYNGSNRPSHIPSRFSGSTSGSTNTLTITGVQVEDEAIYFCGSTDTSTSVGIFGAGTTLTV
B3: human-chicken chimeric monoclonal antibody #1 (antibody, V domains shown)
VH: AVTLDESGGGLQTPGGALSLVCKASGFTFRSHSMFWVRQAPGKGLEYVAGIYGVGRSIRYGSAVKGRATMSRDNGQSTVRLQLNNLRAEDTATYYCAKSGYFSNSRYWDSGAYFIDAWGHGTEVIVS
VL: ALTQPASVSANPGETVEITCSGGYSNYGWYQQKSPGSAPVTVIYYNDKRPSDIPSRFSGSKSGSTATLTITGVQAEDEAVYFCGGYDSSTDAGIFGAGTTLTV
B4: human-chicken chimeric monoclonal antibody #2 (antibody, V domains shown)
VH: AVTLDESGGGLQTPGGALSLVCKASGFTFRSHSMFWVRQAPGKGLEYVAGIYGVGRSIRYGSAVKGRATMSRDNGQSTVRLQLNNLRAEDTGTYYCAKSGYFSNRRYWDSGAYFIDAWGHGTEVIVS
VL: ALTQPASVSANLGGTVEITCSGGYSNYGWYQQKSPGSAPVTVIYYNDKRPSDIPSRFSGSKSGSTGTLTITGVRAEDEAVYYCGGYDSSTDAGIFGAGTTLTV
B5: human-mouse chimeric monoclonal antibody #1 (antibody, V domains shown)
VH: GPGLVQPSQSLSITCTVSGFSLTTYDLHWVRQSPGKGLEWLGVIWSGGSTDYNAAFISRLSISKDNSKSQVFFKMNSLQANDTAIYYCARNYGYSAWFAYWGQGTLVTVSA
VL: DVLMTQTPLSLPVSLGDQASISCRSSQSIVHSNGNTYLEWYLQKPGQSPKLLIYKVSNRFSGVPDRFSGSGSGTDFTLKISRVEAEDLGVYYCFQGSHVPLTFGAGTKLELKR
B6: human-mouse chimeric monoclonal antibody #2 (antibody, human IgG1, kappa, V domains shown)
VH: GGGLVKPGGSLKLSCAASGFTFSSYGMSWVRQTPEKRLEWVATISSGGSYTYYPDSVKGRFTISRDNAKNTLYLQMSSLRSEDTAMYYCASLASYYFDYWGQGTTLTVSS
VL: GARCDVQMIQSPSSLSASLGDIVTMTCQASQGTSINLNWFQQKPGKAPKLLIYGASSLEDGVPSRFSGSCFGTDFTLTISSLEDEDMATYFCLQHSYLPPLTFGAGTKLELKR
B7: human-mouse chimeric monoclonal antibody #3 (antibody, human IgG1, kappa, V domains shown)
VH: GGGLVKPGGSLKLSCAASGFTFSSYGMSWVRQTPEKRLEWVATISSGGSYTYYPDSVKGRFTISRDNAKNTLYLQMSSLRSEDTAMYYCASLASYYFDYWGQGTTLTVSS
VL: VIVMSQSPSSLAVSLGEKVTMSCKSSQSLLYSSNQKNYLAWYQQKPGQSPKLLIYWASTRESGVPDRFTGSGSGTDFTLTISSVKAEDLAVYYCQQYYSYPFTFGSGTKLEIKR
B8: human-chicken chimeric monoclonal antibody #4 (antibody, V domains shown)
VH: AVTLDESGGGLQTPGGAVSLVCKGSGFTFSSYGMGWVRQAPGKGLEYVAAIRKDGSTNYGPAVKGRATISRDNGQSTVRLQLSNLRAEDTATYYCAKRSHTGVNAAKIDAWGRGTEVIVS
VL: ALTQPASVSANPGETVKITCSGASHNYGWFQQKSPGSAPVTVIYSNDKRPSDIPSRFSGSKSGSTATLTITGVQADDEAVYFCGGYNIYGPTFGAGTTLTV
B9: human-mouse chimeric comparative monoclonal antibody 3 (antibody, human IgG1, kappa)
heavy: not shown
light: RTTSHMDSDIQLTQSPASLSASVGETVTITCRASGNIHNYLAWYQQKQGKSPQLLVYNAKTLADGVPSRFSGSGSGTQYSLKINSLQPEDFGSYYCQHFWSTLTFGGGTKLEIKQSDTVAAPSVFIFPPSDEQLKSGTASVVCLLNNFYPREAKVQWKVDNALQSGNSQESVTEQDSKDSTYSLSSTLTLSKADYEKHKVYACEVTHQGLSSPVTKSFNRGEC
B10: human-mouse chimeric comparative monoclonal antibody 1 (antibody, human IgG1, kappa)
heavy: not shown
light: DIQMTQSPASLSASVGETVTITCRASGNIHNYLAWYQQKQGKSPQLLVYNAKTLADGVPSRFSGSGSGTQYSLKINSLQPEDFGSYYCQHFWSTLTFGAGTKLELKRADAAPTVSNPYDTVAAPSVFIFPPSDEQLKSGTASVVCLLNNFYPREAKVQWKVDNALQSGNSQESVTEQDSKDSTYSLSSTLTLSKADYEKHKVYACEVTHQGLSSPVTKSFNRGEC
Wherever ADCC cytotoxic activity (51Cr release) against A549 is given: test concentration or dose not given here.
Wherever ADCC cytotoxic activity (51Cr release) against Caki-1 is given: test concentration or dose not given here.
Wherever ADCC cytotoxic activity (51Cr release) against Caki-2 is given: test concentration or dose not given here.
Wherever ADCC cytotoxic activity (51Cr release) against DLD-1 is given: test concentration or dose not given here.
Wherever ADCC cytotoxic activity (51Cr release) against HCT-116 is given: test concentration or dose not given here.
Wherever ADCC cytotoxic activity (51Cr release) against MCF7 is given: test concentration or dose not given here.
Wherever ADCC cytotoxic activity (51Cr release) against MDA-MB-436 is given: test concentration or dose not given here.
Wherever ADCC cytotoxic activity (51Cr release) against MIAPaCa-2 is given: test concentration or dose not given here.
Wherever ADCC cytotoxic activity (51Cr release) against Panc-1 is given: test concentration or dose not given here.
Wherever ADCC cytotoxic activity (51Cr release) against QG56 is given: test concentration or dose not given here.

The assay concerns the target T1, human CAPRIN-1 expressed on the surface …. Briefly: cell-based or functional assay.
B1: the “ADCC cytotoxic activity (51Cr release) against Caki-2” value was less than 8%, the “ADCC cytotoxic activity (51Cr release) against HCT-116” value was less than 3%, the “ADCC cytotoxic activity (51Cr release) against MCF7” value is less than 5% and the “ADCC cytotoxic activity (51Cr release) against MIAPaCa-2” value came to 7%. Besides, the “ADCC cytotoxic activity (51Cr release) against QG56” value was less than 5% and the “ADCC cytotoxic activity (51Cr release) against all other cancer cell lines listed” value is less than 4%.

As for B2, the “ADCC cytotoxic activity (51Cr release) against A549” value is not below 12%, the “ADCC cytotoxic activity (51Cr release) against Caki-1” value is not below 14%, the “ADCC cytotoxic activity (51Cr release) against Caki-2” value is not below 34% and the “ADCC cytotoxic activity (51Cr release) against DLD-1” value is not below 15%. In addition, the “ADCC cytotoxic activity (51Cr release) against HCT-116” value was not below 19%, the “ADCC cytotoxic activity (51Cr release) against MCF7” value was not below 30%, the “ADCC cytotoxic activity (51Cr release) against MDA-MB-436” value was not below 18% and the “ADCC cytotoxic activity (51Cr release) against MIAPaCa-2” value was not below 28%. For the same molecule, the “ADCC cytotoxic activity (51Cr release) against Panc-1” value was not below 18%, the “ADCC cytotoxic activity (51Cr release) against QG56” value is not below 10% and the “ADCC cytotoxic activity (51Cr release) against all other cancer cell lines listed” value was not below 10%.

As to B3, the “ADCC cytotoxic activity (51Cr release) against A549” value was not below 12%, the “ADCC cytotoxic activity (51Cr release) against Caki-1” value is not below 14%, the “ADCC cytotoxic activity (51Cr release) against Caki-2” value is not below 34% and the “ADCC cytotoxic activity (51Cr release) against DLD-1” value is not below 15%. The “ADCC cytotoxic activity (51Cr release) against HCT-116” value is not below 19%, the “ADCC cytotoxic activity (51Cr release) against MCF7” value was not below 30%, the “ADCC cytotoxic activity (51Cr release) against MDA-MB-436” value is not below 18% and the “ADCC cytotoxic activity (51Cr release) against MIAPaCa-2” value was not below 28%. For the same molecule, the “ADCC cytotoxic activity (51Cr release) against Panc-1” value was not below 18%, the “ADCC cytotoxic activity (51Cr release) against QG56” value is not below 10% and the “ADCC cytotoxic activity (51Cr release) against all other cancer cell lines listed” value is not below 10%.

For the molecule B4, the “ADCC cytotoxic activity (51Cr release) against A549” value was not below 12%, the “ADCC cytotoxic activity (51Cr release) against Caki-1” value was not below 14%, the “ADCC cytotoxic activity (51Cr release) against Caki-2” value is not below 34% and the “ADCC cytotoxic activity (51Cr release) against DLD-1” value is not below 15%. In addition, the “ADCC cytotoxic activity (51Cr release) against HCT-116” value is not below 19%, the “ADCC cytotoxic activity (51Cr release) against MCF7” value is not below 30%, the “ADCC cytotoxic activity (51Cr release) against MDA-MB-436” value is not below 18% and the “ADCC cytotoxic activity (51Cr release) against MIAPaCa-2” value was not below 28%. The “ADCC cytotoxic activity (51Cr release) against Panc-1” value is not below 18%, the “ADCC cytotoxic activity (51Cr release) against QG56” value was not below 10% and the “ADCC cytotoxic activity (51Cr release) against all other cancer cell lines listed” value is not below 10%.

Consider B5, for which the “ADCC cytotoxic activity (51Cr release) against Caki-2” value is not below 34%, the “ADCC cytotoxic activity (51Cr release) against HCT-116” value was not below 19%, the “ADCC cytotoxic activity (51Cr release) against MCF7” value was not below 30% and the “ADCC cytotoxic activity (51Cr release) against MIAPaCa-2” value is not below 28%. The “ADCC cytotoxic activity (51Cr release) against QG56” value was not below 10% and the “ADCC cytotoxic activity (51Cr release) against all other cancer cell lines listed” value was not below 10%.

B6: the “ADCC cytotoxic activity (51Cr release) against Caki-2” value is not below 18%, the “ADCC cytotoxic activity (51Cr release) against HCT-116” value is not below 18%, the “ADCC cytotoxic activity (51Cr release) against MCF7” value was not below 32% and the “ADCC cytotoxic activity (51Cr release) against MIAPaCa-2” value is not below 32%. In addition, the “ADCC cytotoxic activity (51Cr release) against QG56” value is not below 10% and the “ADCC cytotoxic activity (51Cr release) against all other cancer cell lines listed” value was not below 10%.

As to B7, the “ADCC cytotoxic activity (51Cr release) against Caki-2” value is not below 18%, the “ADCC cytotoxic activity (51Cr release) against HCT-116” value was not below 18%, the “ADCC cytotoxic activity (51Cr release) against MCF7” value is not below 32% and the “ADCC cytotoxic activity (51Cr release) against MIAPaCa-2” value was not below 32%. Further, the “ADCC cytotoxic activity (51Cr release) against QG56” value was not below 10% and the “ADCC cytotoxic activity (51Cr release) against all other cancer cell lines listed” value was not below 10%.

For the molecule B8, the “ADCC cytotoxic activity (51Cr release) against A549” value is not below 12%, the “ADCC cytotoxic activity (51Cr release) against Caki-1” value is not below 14%, the “ADCC cytotoxic activity (51Cr release) against Caki-2” value is not below 34% and the “ADCC cytotoxic activity (51Cr release) against DLD-1” value was not below 15%. The “ADCC cytotoxic activity (51Cr release) against HCT-116” value was not below 19%, the “ADCC cytotoxic activity (51Cr release) against MCF7” value was not below 30%, the “ADCC cytotoxic activity (51Cr release) against MDA-MB-436” value is not below 18% and the “ADCC cytotoxic activity (51Cr release) against MIAPaCa-2” value is not below 28%. The “ADCC cytotoxic activity (51Cr release) against Panc-1” value was not below 18%, the “ADCC cytotoxic activity (51Cr release) against QG56” value is not below 10% and the “ADCC cytotoxic activity (51Cr release) against all other cancer cell lines listed” value was not below 10%.

As to B9, the “ADCC cytotoxic activity (51Cr release) against Caki-2” value is less than 8%, the “ADCC cytotoxic activity (51Cr release) against HCT-116” value is less than 3%, the “ADCC cytotoxic activity (51Cr release) against MCF7” value is less than 5% and the “ADCC cytotoxic activity (51Cr release) against MIAPaCa-2” value stood at 7%. The “ADCC cytotoxic activity (51Cr release) against QG56” value was less than 5% and the “ADCC cytotoxic activity (51Cr release) against all other cancer cell lines listed” value is less than 4%.

Consider B10, for which the “ADCC cytotoxic activity (51Cr release) against Caki-2” value was less than 8%, the “ADCC cytotoxic activity (51Cr release) against HCT-116” value was less than 3%, the “ADCC cytotoxic activity (51Cr release) against MCF7” value was less than 5% and the “ADCC cytotoxic activity (51Cr release) against MIAPaCa-2” value was found to be 7%. Further, the “ADCC cytotoxic activity (51Cr release) against QG56” value was less than 5% and the “ADCC cytotoxic activity (51Cr release) against all other cancer cell lines listed” value is less than 4%.
